Laboratory results reported in the supplement of paper PMC10065799, “High-throughput profiling of sequence recognition by tyrosine kinases and SH2 domains using bacterial peptide display” (eLife, 2023).

These sequences were tested on c-Src (assay: phosphorylation enrichment, bacterial display (enrichment ratio); higher = better substrate or ligand; peptides without Tyr show the background).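 Also: 11-residue human phosphosite peptides and single-mutation variants displayed on the E. coli surface, counted by deep sequencing, each peptide's frequency after selection divided by its frequency in the unselected input library; frequency after pTyr selection over input frequency; kinase dosed for 20-30% of maximal phosphorylation in three min.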
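For SH2 binding enrichment of the phosphorylated peptide, bacterial display in this document: peptide library displayed on the E. coli surface as eCPX fusions, selected cells deep-sequenced, score is each peptide's frequency after selection divided by its frequency in the input.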

Compared with IMAYFYMCDSA [CASD1_Y382_R386S], RLMLQYDAVVN [SLC25A32_Y152] is lower in phosphorylation enrichment: 0.69 for the first, 0.406 for the second.

First: RTMPDYTSFNT [EPHB2_Y912_I909M]
Second: FADIAYNYRHG [PAH_Y166]
The phosphorylation enrichment of the first is higher: 1.31 for the first, 0.398 for the second.

First: SREDIYKRNTE [PDE4DIP_Y45_I49T]
Second: RENGPYFASFP [GDAP2_Y487_T489A_YF]
The phosphorylation enrichment of the first is lower: 0.451 for the first, 1.27 for the second.

First: VGTKRYMASEV [ACVRL1_Y375_P378S]
Second: QLRPGYFPIPV [BAG3_Y93_I94F]
The phosphorylation enrichment of the first is higher: 0.513 for the first, 0.423 for the second.

Compared with HIAKGYRRDNP [HARS1_Y156_V155G], KASGKYFAMKI [AKT3_Y173_YF] is lower in phosphorylation enrichment: 0.451 for the first, 0.351 for the second.

Going from KDFNKYVAFIE [KDM4B_Y31_YF] to MGSYNYLGFPR [SPTLC2_Y178_A182P], the phosphorylation enrichment rises from 0.456 to 0.735.

Going from HNLNYYKKTTN [FGFR3_Y648_D646N] to WVFNHYRWIIW [BRCA2_Y2624_YF], the phosphorylation enrichment rises from 0.429 to 0.432.

Compared with MSRDVYSTDFF [NTRK2_Y702_YF], NNKKDYFDMFE [SLC26A3_Y526_K521N_YF] is lower in phosphorylation enrichment: 2.73 for the first, 0.488 for the second.

Compared with NWGSPYKSNGC [ZNF347_Y261], FTNRNYDLDFD [MYC_Y12_YF] is higher in phosphorylation enrichment: 0.52 for the first, 0.633 for the second.

Compared with KQNSLYSFSDH [CCDC82_Y331], DPLLTHRFPPK [LMNA_Y481_Y481H] is lower in phosphorylation enrichment: 3.97 for the first, 0.406 for the second.

First: MFDKEYFSVHN [MET_Y1234_YF]
Second: MSSLFYANALF [HOXB7_Y6_T9A_YF]
The phosphorylation enrichment of the first is lower: 0.632 for the first, 0.975 for the second.

Compared with GVTLLYFGRDN [ADGRD1_Y85_Y89D_YF], EHIEFYELDKK [PMM2_Y145_R141H] is higher in phosphorylation enrichment: 0.398 for the first, 1.11 for the second.

Going from LRRREYQRQDY [PRKRIP1_Y90] to NTVLGYFIGRI [GARS1_Y408], the phosphorylation enrichment falls from 0.565 to 0.348.

First: KASIMYPSSNC [CXCL11_Y52_N55S]
Second: HMEAVYIDIAD [PITPNA_Y140_V136M]
The phosphorylation enrichment of the first is lower: 0.397 for the first, 3.62 for the second.

First: KLRMESLSLMH [NCKIPSD_Y660_Y660S]
Second: ITLKGYNLSNS [GNPTAB_Y728_K732N]
The phosphorylation enrichment of the first is higher: 0.457 for the first, 0.448 for the second.

Compared with QGIFGYHHFMQ [UFSP2_Y287_YF], GFSDPYVKAFL [SYT3_Y470_S474F] is lower in phosphorylation enrichment: 0.531 for the first, 0.497 for the second.

CEHRGSLYLAI [TEK_Y897_Y897S] was tested, and the phosphorylation enrichment was 0.891.

The sequences below were run against Grb2 SH2 (UniProt P62993) (assay: SH2 binding enrichment of the phosphorylated peptide, bacterial display (enrichment ratio); higher = better substrate or ligand; peptides without Tyr show the background).
Chain of Grb2 SH2 (P62993 whole entry, looked up): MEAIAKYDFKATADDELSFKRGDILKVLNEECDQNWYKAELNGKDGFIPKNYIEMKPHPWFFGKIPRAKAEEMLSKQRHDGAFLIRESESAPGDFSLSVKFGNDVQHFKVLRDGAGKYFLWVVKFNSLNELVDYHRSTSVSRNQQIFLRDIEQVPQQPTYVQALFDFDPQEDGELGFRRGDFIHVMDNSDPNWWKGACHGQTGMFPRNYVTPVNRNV

First: IMAYFYMCDSA [CASD1_Y382_R386S]
Second: RLMLQYDAVVN [SLC25A32_Y152]
The SH2 binding enrichment of the first is higher: 1.08 for the first, 1.02 for the second.

Going from RTMPDYTSFNT [EPHB2_Y912_I909M] to FADIAYNYRHG [PAH_Y166], the SH2 binding enrichment falls from 0.935 to 0.877.

First: SREDIYKRNTE [PDE4DIP_Y45_I49T]
Second: RENGPYFASFP [GDAP2_Y487_T489A_YF]
The SH2 binding enrichment of the first is lower: 0.685 for the first, 0.812 for the second.

First: VGTKRYMASEV [ACVRL1_Y375_P378S]
Second: QLRPGYFPIPV [BAG3_Y93_I94F]
The SH2 binding enrichment of the first is higher: 1.06 for the first, 0.697 for the second.

Compared with HIAKGYRRDNP [HARS1_Y156_V155G], KASGKYFAMKI [AKT3_Y173_YF] is higher in SH2 binding enrichment: 0.456 for the first, 1.37 for the second.

Compared with KDFNKYVAFIE [KDM4B_Y31_YF], MGSYNYLGFPR [SPTLC2_Y178_A182P] is higher in SH2 binding enrichment: 0.864 for the first, 0.921 for the second.

Going from HNLNYYKKTTN [FGFR3_Y648_D646N] to WVFNHYRWIIW [BRCA2_Y2624_YF], the SH2 binding enrichment rises from 0.738 to 1.09.

First: MSRDVYSTDFF [NTRK2_Y702_YF]
Second: NNKKDYFDMFE [SLC26A3_Y526_K521N_YF]
The SH2 binding enrichment of the first is higher: 0.835 for the first, 0.707 for the second.

Going from NWGSPYKSNGC [ZNF347_Y261] to FTNRNYDLDFD [MYC_Y12_YF], the SH2 binding enrichment rises from 0.819 to 0.828.

First: KQNSLYSFSDH [CCDC82_Y331]
Second: DPLLTHRFPPK [LMNA_Y481_Y481H]
The SH2 binding enrichment of the first is lower: 0.765 for the first, 0.834 for the second.

Going from MFDKEYFSVHN [MET_Y1234_YF] to MSSLFYANALF [HOXB7_Y6_T9A_YF], the SH2 binding enrichment rises from 0.746 to 1.25.

Going from GVTLLYFGRDN [ADGRD1_Y85_Y89D_YF] to EHIEFYELDKK [PMM2_Y145_R141H], the SH2 binding enrichment falls from 1.63 to 0.688.

First: LRRREYQRQDY [PRKRIP1_Y90]
Second: NTVLGYFIGRI [GARS1_Y408]
The SH2 binding enrichment of the first is lower: 0.76 for the first, 1.14 for the second.

First: KASIMYPSSNC [CXCL11_Y52_N55S]
Second: HMEAVYIDIAD [PITPNA_Y140_V136M]
The SH2 binding enrichment of the first is lower: 0.943 for the first, 1.23 for the second.

Going from KLRMESLSLMH [NCKIPSD_Y660_Y660S] to ITLKGYNLSNS [GNPTAB_Y728_K732N], the SH2 binding enrichment falls from 1.15 to 1.05.

Compared with QGIFGYHHFMQ [UFSP2_Y287_YF], GFSDPYVKAFL [SYT3_Y470_S474F] is lower in SH2 binding enrichment: 1.47 for the first, 0.897 for the second.

CEHRGSLYLAI [TEK_Y897_Y897S] showed an SH2 binding enrichment of 0.795.
